Assays:
[1] = molecular target: T1, Cap0037 (Clostridium acetobutylicum ATCC 824) (UniProt Q97TR1); experiment: EMSA; conditions: EMSA: 20 ul with 2 ul buffer (stock 200 mM Tris, 500 mM Na glutamate, 100 mM MgCl2, 63.6 mM EDTA, 0.5% NP-40, 50% glycerol), 1 ug poly(dI-dC), 20 min room …
T1 sequence: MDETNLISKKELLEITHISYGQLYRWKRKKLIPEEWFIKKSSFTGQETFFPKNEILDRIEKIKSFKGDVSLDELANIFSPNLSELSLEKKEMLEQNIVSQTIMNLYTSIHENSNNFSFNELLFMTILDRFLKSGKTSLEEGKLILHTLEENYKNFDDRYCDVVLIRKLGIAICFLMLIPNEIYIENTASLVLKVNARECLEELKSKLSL

[2] = molecular target: T1, Cap0037 (Clostridium acetobutylicum ATCC 824); experiment: DNase I footprinting; conditions: EMSA: 20 ul with 2 ul buffer (stock 200 mM Tris, 500 mM Na glutamate, 100 mM MgCl2, 63.6 mM EDTA, 0.5% NP-40, 50% glycerol), 1 ug poly(dI-dC), 20 min room …

With “GCATAGGTCAAAAATATAACAGCTGTGTATTTAAATGTAAATAGCAACTTTTACAAAATGGTATCTAATATTTTGGCGTAATAATATATATTTAGGAATTATCAGTATATTTAGAAAAATATGAAGGTTTAAAATAAACTGCTAAATGTAAACGTATAATTTACATTTAGCAGTTTTCCTATATTATAAAATTTTATAGGAGCATAAATAGAATTGAGT (double strand) [sol probe (EMSA)]” the binding [1] was “binds”.
“AGAGAATTCCCATTTTACCTTCTATTCTAACTAAAAGGTATATTGATACAGCTATGGGAAAGCCAACATTGCCTATAAGAGACACTATATCGCCTGAATTCATAAAAACACCTCCACATAAGTTTATATAAATCTATTATGCAGAATTTTTAGGAAGTGTACTTTTATTTTCGAAAGCTAGTAGAAAAAATTAATATATGGTGTAAAAATTTACTTAAAAAAACAATATGTGTTATAATGGAT (double strand) [probe 144 (adc promoter, upstream site)]” was tested, and the binding [2] was “binds”.
“CTGCATAATATAAAATGCAGATTTTTTTAAACAAATATTGATAAAGATTATCAAATGATATATAATATTGTTAGTTAATAAATTAACAAAGTTTTATATTTTAAATACAATGTTGCATAAGACAAGGTAATTGAACTAATACTATACTAGTAATTGGAGGGGATAATATATGAAAAAGAATACTAAAATTTCAGTAATCGGAGCAGGATTTGT (double strand) [ldhA promoter]” was tested, and the binding [1] was “no binding”.
For “ACAGAATTCGCAGAATTTTTAGGAAGTGTACTTTTATTTTCGAAAGCTAGTAGAAAAAATTAATATATGGTGTAAAAATTTACTTAAAAAAACAATATGTGTTATAATGTAAATATAAATAAATAGGACTAGAGGCGATTTATAATGTGAAGATAAAGTATGTTAGAAAAGCTAAACATTATTAAATTTAGGAAGGTGACTTTTATGTTAAAGGATGAAGTAATTAAACAAATTAGCACGCCATTAACTTCGCCGAT (double strand) [probe adcStart (adc transcription start)]”, the binding [2] was “binds”.
For “ACAGAATTCCTCAATTCTATTTATGCTCCTATAAAATTTTATAATATAGGAAAACTGCTAAATGTAAATTATACGTTTACATTTAGCAGTTTATTTTAAACCTTCATATTTTTCTAAATATACTGATAATTCCTAAATATATATTATTACGCCAAAATATTAGATACCATTTTGTAAAAGTTGCTATTTACATTTAAATACACAGCTGTTATATTTTTGACCTATGCTTTTTATTGGAT (double strand) [probe sol (sol promoter, footprint)]”, the binding [2] was “binds”.

Reference: publication PMC5050335
